This is an account of results in the RNAGym collection of RNA variant scans (doi:10.1093/molbev/msab373).

The chains are these.
B1: Azoarcus group I ribozyme (parent)
chain: GUGCCUUGCGCCGGGAAACCACGCAAGGGAUGGUGUCAAAUUCGGCGAAACCUAAGCGCCCGCCCGGGCGUAUGGCAACGCCGAGCCAAGCUUCGGCGCCUGCGCCGAUGAAGGUGUAGAGACUAGACGGCACCCACCUAAGGCAAACGCUAUGGUGAAGGCAUAGUCCAGGGAGUGGCGAAAGUCACACAAACCGG

The variants in this data set derive from B1. Nature of the data set: reverse-splicing fitness (ratio to wild type); higher = more active; in vitro selection; Mg2+ level not given. The essentials: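 An in vitro group I ribozyme library with randomized positions was T7-transcribed and gel-purified. In triplicate, 10 pmol RNA in EPPS pH 7.5 was reacted with 50 pmoles of a 30-nt RNA substrate for 1 h at 37 °C across several added MgCl2 levels (1–48 mM), then stopped with EDTA. Products were reverse transcribed from a substrate-complementary primer, PCR-amplified and sequenced (HiSeq 4000). Fitness is a variant's read proportion after selection over that before, normalised to wild type.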
Consider C82U A111G A120G A145U C150U C169A, for which the reverse-splicing fitness came out at 0.00925.

Consider C82U A111G A120G A145U C150U C169U, for which the reverse-splicing fitness was 0.00963. Regarding C82U A111G A120C A145U C150A C169A U176A, the reverse-splicing fitness came out at 0.0128.

Take C82U A111G A120C A145U C150A C169A U176G: the reverse-splicing fitness came to 0.00469. For the variant C82U A111G A120C A145U C150A C169A U176C, the reverse-splicing fitness was 0.00758. With C82U A111G A120C A145G C169U U176G, the reverse-splicing fitness was 0.00401. Take C82U A111G A120C A145G C169U U176C: the reverse-splicing fitness came out at 0.0146.

Take C82U A111G A120C A145G C169U U176A: the reverse-splicing fitness is 0.0141. As to C82U A111G A120G A145G C150U C169U U176G, the reverse-splicing fitness turned out to be 0.00525. With C82U A111G A120G A145G C150U C169U U176A, the reverse-splicing fitness amounted to 0.0187.

For the variant C82U A111G A120G A145G C150U C169U U176C, the reverse-splicing fitness is 0.0162. On to C82U A111G A120G A145C C150A C169U U176A, for which the reverse-splicing fitness was 0.0192. In the case of C82U A111G A120G A145C C150A C169U U176G, the reverse-splicing fitness was determined as 0.00373. With C82U A111G A120G A145C C150A C169U U176C, the reverse-splicing fitness was found to be 0.00907. On to C82U A111G A120G A145U C150A C169U U176G, for which the reverse-splicing fitness stood at 0.0048. With C82U A111G A120G A145U C150A C169U U176C the figure was 0.0142; with C82U A111G A120G A145U C150A C169U U176A, 0.019; with C82U A111G A120G A145U C150U C169U U176A, 0.02.

C82U A111G A120G A145U C150U C169U U176G: the reverse-splicing fitness was 0.00432. Regarding C82U A111G A120G A145U C150U C169U U176C, the reverse-splicing fitness amounted to 0.0131. Consider C82U A111G A120G A145U C150G C169G U176G, for which the reverse-splicing fitness amounted to 0.00427. On to C82U A111G A120G A145U C150G C169G U176A, for which the reverse-splicing fitness stood at 0.00667. On to C82U A111G A120G A145U C150G C169G U176C, for which the reverse-splicing fitness was found to be 0.00487. For the variant C82U A111G A120G A145C C150U U176C, the reverse-splicing fitness worked out at 0.00908.

Take C82U A111G A120G A145C C150U U176A: the reverse-splicing fitness worked out at 0.0079.

In the case of C82U A111G A120G A145C C150U U176G, the reverse-splicing fitness was 0.00386. Regarding C82U A111G A120G A145G C150G U176A, the reverse-splicing fitness amounted to 0.00637. As for C82U A111G A120G A145G C150G U176C, the figure is 0.00856; as for C82U A111G A120G A145G C150G U176G, 0.00546; as for C82U A111G A120C A145U C150A C169G U176A, 0.0153. C82U A111G A120C A145U C150A C169G U176G: the reverse-splicing fitness stood at 0.00457. As for C82U A111G A120C A145U C150A C169G U176C, the figure is 0.0112. On to C82U A111G A120G A145C C150A C169G U176G, for which the reverse-splicing fitness was determined as 0.00465. Regarding C82U A111G A120G A145C C150A C169G U176C, the reverse-splicing fitness turned out to be 0.015. Regarding C82U A111G A120G A145C C150A C169G U176A, the reverse-splicing fitness worked out at 0.023.

In the case of C82U A111G A120G A145U C150G C169G, the reverse-splicing fitness amounted to 0.00704. Take C82U A111G A120G A145U C150G C169U: the reverse-splicing fitness is 0.00832.

Take C82U A111G A120G A145U C150G C169A: the reverse-splicing fitness came out at 0.00861. As to C82U A111G A120C C150G U176A, the reverse-splicing fitness was determined as 0.00392. Turning to C82U A111G A120C C150G U176G, the reverse-splicing fitness was 0.00249. As for C82U A111G A120C C150G U176C, the reverse-splicing fitness was determined as 0.00984. C82U A111G A120G A145G C150G C169G U176A: the reverse-splicing fitness amounted to 0.00945.

Regarding C82U A111G A120G A145G C150G C169G U176G, the reverse-splicing fitness worked out at 0.00529. Turning to C82U A111G A120G A145G C150G C169G U176C, the reverse-splicing fitness was determined as 0.011. With C82U A111G A120G A145U C150U U176A the figure was 0.00942. As to C82U A111G A120G A145U C150U U176G, the reverse-splicing fitness came to 0.00411.

As for C82U A111G A120G A145U C150U U176C, the reverse-splicing fitness is 0.0124.

Take C82U A111G A120G A145G C150A C169U: the reverse-splicing fitness was 0.00914. As to C82U A111G A120G A145G C150A C169A, the reverse-splicing fitness came out at 0.00945.

With C82U A111G A120G A145G C150A C169G, the reverse-splicing fitness is 0.009. As for C82U A111G A120C C150U C169U U176G, the reverse-splicing fitness amounted to 0.0054. As to C82U A111G A120C C150U C169U U176A, the reverse-splicing fitness is 0.0154. On to C82U A111G A120C C150U C169U U176C, for which the reverse-splicing fitness came to 0.0151.

In the case of C82U A111G A120C A145U C150G U176A, the reverse-splicing fitness was determined as 0.00455.

Take C82U A111G A120C A145U C150G U176C: the reverse-splicing fitness was found to be 0.00882.

For C82U A111G A120C A145U C150G U176G, the reverse-splicing fitness was 0.00286. As to C82U A111G A120G A145G C150G C169U U176G, the reverse-splicing fitness was 0.00643. C82U A111G A120G A145G C150G C169U U176C: the reverse-splicing fitness is 0.0105. With C82U A111G A120G A145G C150G C169U U176A the figure was 0.0114; with C82U A111G A120G A145G U176C, 0.0192; with C82U A111G A120G A145G U176G, 0.00429. As to C82U A111G A120G A145G U176A, the reverse-splicing fitness came to 0.0123.

Consider C82U A111G A120G A145C C150G C169A U176C, for which the reverse-splicing fitness was 0.00579. On to C82U A111G A120G A145C C150G C169A U176G, for which the reverse-splicing fitness was 0.00439. With C82U A111G A120G A145C C150G C169A U176A, the reverse-splicing fitness worked out at 0.00781. With C82U A111G A120G A145G C150U, the reverse-splicing fitness came out at 0.0132. With C82U A111G A120G A145G C150A the figure was 0.00878; with C82U A111G A120G A145G C150G, 0.00721. With C82U A111G A120G A145G C150A U176C, the reverse-splicing fitness came to 0.0196. As to C82U A111G A120G A145G C150A U176A, the reverse-splicing fitness stood at 0.0088.

Take C82U A111G A120G A145G C150A U176G: the reverse-splicing fitness was 0.00593.

Consider C82U A111G A120G A145U C150U C169A U176C, for which the reverse-splicing fitness came to 0.00928. For C82U A111G A120G A145U C150U C169A U176A, the reverse-splicing fitness came to 0.0119. With C82U A111G A120G A145U C150U C169A U176G, the reverse-splicing fitness stood at 0.0045. With C82U A111G A120C A145G U176C the figure was 0.0318; with C82U A111G A120C A145G U176G, 0.00519; with C82U A111G A120C A145G U176A, 0.0202. For C82U A111G A120C A145U C150A C169U U176A, the reverse-splicing fitness was 0.0139. Regarding C82U A111G A120C A145U C150A C169U U176C, the reverse-splicing fitness came out at 0.0132. C82U A111G A120C A145U C150A C169U U176G: the reverse-splicing fitness worked out at 0.00404. As for C82U A111G A120G A145G C150U C169G U176C, the figure is 0.0168; as for C82U A111G A120G A145G C150U C169G U176G, 0.00444. With C82U A111G A120G A145G C150U C169G U176A the figure was 0.014.
